± gives the uncertainty stated by the source.
Assay: self-splicing fitness, log relative to wild type (ln ratio); higher = more splicing; Tetrahymena group I intron in knt gene, E. coli kanamycin selection, DiMSum; sequences stand for … in CUCUCU…GGAGGGAAAAGUUAUCAGGCAUGCACCUGGUAGCUAGUCUUUAAACCAAUAGAUUGCAUCGGUUUAAAAGGCAAGACCGUCAAAUUGCGGGAAAGGGGUCAACAGCCGUUCAGUACCAAGUCUCAGGGGAAACUUUGAGAUGGCCUUGCAAAGGGUAUGGUAAUAAGCUGACGGACAUGGUCCUAACCACGCAGCCAAGUCCUAAGUCAACAGAUCUUCUGUUGAUAUGGAUGCAGUUCACAGACUAAAUGUCGGUCGGGGAAGAUGUAUUCUUCUCAUAAGAUAUAGUCGGACCUCUCCUUAAUGGGAGCUAGCGGAUGAAGUGAUGCAACACUGGAGCCGCUGGGAACUAAUUUGUAUGCGAAAGUAUAUUGAUUAGUUUUGGAGUACUCGUGGUCG
How it was run: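 Six replicate transformations of E. coli BL21(DE3) with a pET-22b(+) library were grown overnight at 37°C or 30°C. The library randomised all eight P1ex-region intron nucleotides, the intron lying in the knt kanamycin-resistance gene, and plates were LB agar with or without 25 μg/mL kanamycin plus 100 μg/mL carbenicillin, 50 μM IPTG and 0.2% rhamnose. Pooled colonies were amplicon-sequenced on an Illumina HiSeq 2500, and fitness is the DiMSum error-weighted combination of wild-type-normalised replicate fold changes, kanamycin versus none.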

Sequence | self-splicing fitness (ln) (30 °C) | self-splicing fitness (ln) (37 °C)
GUAUAGCAAUAUUACGUCAG | -3.96 ± 0.35 | -1.08 ± 0.18
ACACAGCAAUAUUACGGACG | -0.635 ± 0.057 | 0.0496 ± 0.073
CGUCAGCAAUAUUACGAGAC | -2.95 ± 0.38 | -1.9 ± 0.32
UUACAGCAAUAUUACGGCCG | -0.529 ± 0.16 | -0.389 ± 0.16
GAGUAGCAAUAUUACGUAAG | -2.82 ± 0.14 | 0.0773 ± 0.14
AUUAAGCAAUAUUACGCUAU | -3.62 ± 0.26 | -1.73 ± 0.26
AAUGAGCAAUAUUACGUUAA | -2.76 ± 0.18 | -1.72 ± 0.17
CAUAAGCAAUAUUACGACCU | -2.63 ± 0.28 | -1.62 ± 0.33
AGCCAGCAAUAUUACGGACC | -0.609 ± 0.095 | -0.386 ± 0.11
ACCAAGCAAUAUUACGGCGU | -1 ± 0.05 | 0.0505 ± 0.064
UGCUAGCAAUAUUACGAUUC | – | -2.33 ± 0.49
UGUGAGCAAUAUUACGGGAA | – | -2.51 ± 0.33
CCCGAGCAAUAUUACGAGGG | -4.84 ± 0.36 | -2.58 ± 0.22
AGGCAGCAAUAUUACGGCAU | -0.346 ± 0.062 | 0.15 ± 0.09
ACUCAGCAAUAUUACGGUAC | -2.63 ± 0.13 | -3.01 ± 0.21
UUGCAGCAAUAUUACGUUCU | -2.44 ± 0.12 | -0.872 ± 0.11
GCUGAGCAAUAUUACGGCGC | -0.35 ± 0.13 | -0.0749 ± 0.15
UGGGAGCAAUAUUACGAAAC | -1.85 ± 0.22 | -1.79 ± 0.49
CGUCAGCAAUAUUACGUGCG | -4.56 ± 0.31 | -2.21 ± 0.19
CAACAGCAAUAUUACGUAGA | -2.68 ± 0.081 | -1.18 ± 0.081
AGGCAGCAAUAUUACGAUGG | -3.56 ± 0.19 | -2.44 ± 0.22
CUCGAGCAAUAUUACGGUUA | -2.71 ± 0.16 | -1.58 ± 0.13
UGCCAGCAAUAUUACGACCA | 0.429 ± 0.1 | 0.0668 ± 0.13
AAGCAGCAAUAUUACGCAAA | -1.82 ± 0.14 | -1.65 ± 0.13
CGACAGCAAUAUUACGACGC | -2.21 ± 0.11 | -0.587 ± 0.12
UCUGAGCAAUAUUACGAAGA | -1.67 ± 0.21 | -0.838 ± 0.27
AGGAAGCAAUAUUACGAAAA | – | -2.42 ± 0.41

Sequence | self-splicing fitness (ln) (30 °C) | self-splicing fitness (ln) (37 °C)
GGCUAGCAAUAUUACGAUAC | -1.71 ± 0.16 | -0.0528 ± 0.14
CAGUAGCAAUAUUACGCCUC | -2.93 ± 0.46 | -2.4 ± 0.44
AGCCAGCAAUAUUACGAUCU | -0.174 ± 0.11 | 0.256 ± 0.1
GCAGAGCAAUAUUACGUACG | -2.22 ± 0.45 | -1.77 ± 0.35
AAACAGCAAUAUUACGGACU | -0.635 ± 0.097 | -0.406 ± 0.12
GGUAAGCAAUAUUACGUAUU | -2.21 ± 0.12 | -1.22 ± 0.13
AACUAGCAAUAUUACGCUUA | -0.632 ± 0.087 | -0.749 ± 0.11
GGUGAGCAAUAUUACGCUAA | -3.69 ± 0.35 | -1.78 ± 0.21
GCCUAGCAAUAUUACGCGGA | -0.245 ± 0.08 | 0.226 ± 0.093
AAUCAGCAAUAUUACGUACC | -0.557 ± 0.16 | -0.29 ± 0.18
CAACAGCAAUAUUACGUCUA | -1.06 ± 0.053 | -0.786 ± 0.055
AGCCAGCAAUAUUACGAUAA | -4.66 ± 0.46 | -2.89 ± 0.17
GAGAAGCAAUAUUACGUGCG | -1.71 ± 0.093 | -1.02 ± 0.1
UGCCAGCAAUAUUACGUGUU | -2.74 ± 0.1 | -1.67 ± 0.075
UAGAAGCAAUAUUACGCGUG | -1.17 ± 0.13 | -0.211 ± 0.13
CAAAAGCAAUAUUACGAAUC | -4.86 ± 0.38 | -2.71 ± 0.21
GAAGAGCAAUAUUACGACUU | -0.765 ± 0.12 | 0.131 ± 0.14
AUGUAGCAAUAUUACGCUCA | -0.372 ± 0.075 | -0.2 ± 0.1
CAUAAGCAAUAUUACGGGCA | -2.77 ± 0.18 | -1.8 ± 0.19
GGAAAGCAAUAUUACGUCCU | -3.68 ± 0.21 | -1.14 ± 0.14
UUGUAGCAAUAUUACGCCUU | -0.585 ± 0.17 | 0.0387 ± 0.17
CACUAGCAAUAUUACGCUGU | -3.17 ± 0.14 | -3.3 ± 0.23
UUCUAGCAAUAUUACGGGCC | – | -2.38 ± 0.45
GCCGAGCAAUAUUACGAUCA | -1.91 ± 0.12 | -1.69 ± 0.15
UUGGAGCAAUAUUACGUUUA | -2.44 ± 0.44 | –
CACGAGCAAUAUUACGCGUA | -2.23 ± 0.12 | -1.28 ± 0.15
UAUUAGCAAUAUUACGCAUC | -3.67 ± 0.31 | -1.7 ± 0.3

Sequence | self-splicing fitness (ln) (30 °C) | self-splicing fitness (ln) (37 °C)
UGAGAGCAAUAUUACGUCCA | -1.04 ± 0.14 | -0.218 ± 0.17
GUUUAGCAAUAUUACGGUUC | -1.09 ± 0.12 | -0.823 ± 0.15
CUUGAGCAAUAUUACGUGCU | -1.93 ± 0.11 | -3.89 ± 0.42
GAUCAGCAAUAUUACGGUAU | -0.247 ± 0.068 | -0.46 ± 0.078
UUUCAGCAAUAUUACGUGGU | -3.84 ± 0.2 | -3.02 ± 0.21
UCGUAGCAAUAUUACGCUGU | – | -1.67 ± 0.28
AGGGAGCAAUAUUACGUUCC | – | -2.63 ± 0.48
CAAUAGCAAUAUUACGGAUA | -3.03 ± 0.48 | -2.77 ± 0.35
AACCAGCAAUAUUACGUGCA | -0.671 ± 0.055 | -0.0717 ± 0.072
GCGUAGCAAUAUUACGAAGG | – | -2.27 ± 0.5
ACAGAGCAAUAUUACGUUGU | -3.88 ± 0.2 | -2.34 ± 0.18
CCAUAGCAAUAUUACGAGAC | -3.58 ± 0.3 | -0.492 ± 0.17
GGAUAGCAAUAUUACGGCCA | -0.925 ± 0.19 | -0.211 ± 0.18
UUUCAGCAAUAUUACGCAGU | -4.25 ± 0.31 | -1.59 ± 0.17
AUCUAGCAAUAUUACGACCU | -0.471 ± 0.11 | 0.729 ± 0.12
GAGGAGCAAUAUUACGCUAA | -1.86 ± 0.32 | –
UACAAGCAAUAUUACGUUAC | -4.21 ± 0.23 | -2.84 ± 0.22
AGGGAGCAAUAUUACGUCUG | – | -1.73 ± 0.36
GUAGAGCAAUAUUACGUGAA | -1.86 ± 0.17 | -1.87 ± 0.2
GGUCAGCAAUAUUACGAAGA | -1.72 ± 0.18 | -0.837 ± 0.19
AUAGAGCAAUAUUACGCGCC | -1.86 ± 0.32 | -0.949 ± 0.28
AAUUAGCAAUAUUACGUAUC | -2.2 ± 0.15 | -0.0316 ± 0.13
ACGAAGCAAUAUUACGAACC | -1.75 ± 0.14 | -0.895 ± 0.19
GCUUAGCAAUAUUACGGUAU | -1.74 ± 0.074 | -1.15 ± 0.091
GGCUAGCAAUAUUACGUGCG | -0.139 ± 0.099 | 0.371 ± 0.15

From the supplement of paper PMC7877785
